Measured values from US20220185894A1 (F STAR THERAPEUTICS, published 2022).
Positions count from the first letter of the chain named. One block for each binder: values may come before it.

Assays:
[1] = target: T1, human PD-L1 Fc (R&D Systems, 156-B7) (human, UniProt Q9NZQ7 19-239); test: SPR, BIAcore T200; mAb captured on Protein L, PD-L1 Fc injected
T1 construct: Bought protein; not shown: Fc tag of the bought fusion protein

[2] = target: T2, recombinant Fc-tagged human LAG-3 (R&D Systems, 2319-L3-050) (human, UniProt P18627 23-450); test: SPR, mAb captured on Protein L, human LAG-3 Fc injected (from 0.5 nM)
T2 construct: Bought protein; also called LAG-3 Fc; human LAG-3-Fc; not shown: Fc tag of the bought fusion protein
T2 sequence: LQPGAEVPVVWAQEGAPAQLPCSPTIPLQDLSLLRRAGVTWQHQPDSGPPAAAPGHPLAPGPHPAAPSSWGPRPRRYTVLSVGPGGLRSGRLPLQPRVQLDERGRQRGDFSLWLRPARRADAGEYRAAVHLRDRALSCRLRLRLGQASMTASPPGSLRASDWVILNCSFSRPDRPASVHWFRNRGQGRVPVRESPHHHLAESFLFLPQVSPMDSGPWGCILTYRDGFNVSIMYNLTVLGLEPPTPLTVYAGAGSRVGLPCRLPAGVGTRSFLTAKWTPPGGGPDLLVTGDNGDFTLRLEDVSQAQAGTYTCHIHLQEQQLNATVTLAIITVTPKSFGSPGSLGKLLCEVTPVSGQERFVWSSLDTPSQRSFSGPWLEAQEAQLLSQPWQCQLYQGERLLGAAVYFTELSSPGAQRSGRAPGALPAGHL
Description: Protein L (Thermo, 21189) was immobilized on flow cells 1 and 2 of a Series S CM5 chip (GE Healthcare, BR-1005-30) by amine coupling (GE Healthcare, BR-1000-50) to a surface density of 2000 RU by following the manufacturer's instructions for the BIAcore T200 instrument. […] The association time was 3 min and the dissociation time was 6 min. Running buffer was HBS-P (GE Healthcare, BR-1003-68). Both flow cells were regenerated by injecting 10 mM sodium hydroxide (NaOH) at a flow rate of 100 μl/min for 20 seconds. The data were analysed by double referencing against the blank flow cell.
The binding kinetics were fit with a 1:1 Langmuir model to generate binding association (kₐ) and dissociation (kd) rates. Equilibrium binding constants (KD) were calculated by dividing the dissociation rate by the association rate for each sample. Data analysis was performed with BiaEvaluation software version 3.2.

[3] = target: T3, mouse LAG-3 expressed on cells (mouse, UniProt Q61790 24-521); test: flow cytometry on HEK cells expressing murine LAG-3
T3 construct: also called mLAG-3; murine LAG-3 HEK
T3 sequence: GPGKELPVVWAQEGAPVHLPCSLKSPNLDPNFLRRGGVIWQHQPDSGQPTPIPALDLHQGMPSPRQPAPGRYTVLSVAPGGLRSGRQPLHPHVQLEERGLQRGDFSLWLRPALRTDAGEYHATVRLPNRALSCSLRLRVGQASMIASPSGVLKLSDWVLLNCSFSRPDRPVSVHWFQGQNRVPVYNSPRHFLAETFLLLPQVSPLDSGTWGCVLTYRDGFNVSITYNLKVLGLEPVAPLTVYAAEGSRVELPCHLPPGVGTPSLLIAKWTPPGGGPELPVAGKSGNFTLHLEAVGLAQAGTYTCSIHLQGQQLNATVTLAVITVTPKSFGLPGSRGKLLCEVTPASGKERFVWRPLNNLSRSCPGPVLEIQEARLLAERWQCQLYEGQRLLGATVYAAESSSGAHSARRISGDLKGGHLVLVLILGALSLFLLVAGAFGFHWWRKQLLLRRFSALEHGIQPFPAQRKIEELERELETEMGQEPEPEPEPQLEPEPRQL
Description: (§1) The affinity of the mAb² (all containing the LALA mutations) binding to cell expressed murine LAG-3 or murine PD-L1 was determined using flow cytometry. HEK cells expressing murine LAG-3 or murine PD-L1 grown in DMEM (Life Technologies, 61965-026) containing 10% FBS (Life Technologies, 10270-1-6), 100 μg/ml Hygromycin B (Melford Laboratories Ltd, Z2475), 15 μg/ml Blasticidin (Melford Laboratories Ltd, B1105) and 1 μg/ml Doxycyclin (Sigma, D9891) were detached from tissue culture flasks using cell dissociation buffer (Life Technologies, 13151-014) and seeded in V-bottom 96-well plates (Costar, 3897) at 2×10⁵ cells/well. The plates were centrifuged at 1500 rpm for 3 min at 4° C. to pellet the cells. A dilution series of the mAb² (or control mAb) were incubated with the cells in a 60 μl volume for 1 h at 4° C. The plates were washed and secondary antibody (Anti-human Fc-488, Jackson ImmunoResearch, 109-546-098 for mAb² or Anti-Rat IgG (H+L), Alexa Fluor 488, ThermoFisher, A-11006 for anti-LAG-3 control, C9B7W) was diluted 1:1000 in PBS and 50 μl was added to the cells for 30 min at 4° C. (plates were kept in the dark). The plates were washed then cells were resuspended in 50 μl FACS Cell Fix (BD Bioscience, 340181) for 15 minutes, then washed and resuspended in 100 μl PBS containing 1 μg/ml DAPI (Biotium, 40043). The plates were read using Canto II flow cytometer (BD Bioscience). Dead cells were excluded and the fluorescence in the FITC channel (488 nm/530/30) was measured. The data was fit using log (agonist) vs response in GraphPad Prism Software. The plates were read on a BD FACSCanto II cytometer (BD Biosciences) and the data analysed using FlowJo.

[4] = target: T4, murine PD-L1 expressed on cells (mouse, UniProt Q9EP73 19-290); test: flow cytometry on HEK cells expressing murine PD-L1
T4 construct: also called murine PD-L1 HEK
T4 sequence (Q9EP73 19-290 limits assumed): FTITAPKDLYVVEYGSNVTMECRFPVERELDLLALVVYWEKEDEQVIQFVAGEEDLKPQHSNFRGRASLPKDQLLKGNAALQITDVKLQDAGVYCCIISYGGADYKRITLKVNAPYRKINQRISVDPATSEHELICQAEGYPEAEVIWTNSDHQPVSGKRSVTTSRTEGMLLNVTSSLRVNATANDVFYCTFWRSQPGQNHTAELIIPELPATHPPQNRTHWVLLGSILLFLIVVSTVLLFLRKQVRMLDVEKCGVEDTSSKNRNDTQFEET
Description: as §1, with “The plates were washed then cells were resuspended in 50 μl FACS Cell Fix (BD Bioscience, 340181) for 15 minutes, then washed and resuspended in 100 μl PBS containing 1 μg/ml DAPI (Biotium, 40043).” left out, “The data was fit using log (agonist) vs response in GraphPad Prism Software.” left out

[5] = target: T3, mouse LAG-3 expressed on cells; test: flow cytometry on HEK cells expressing mouse LAG-3
Description: The plates were centrifuged at 1500 rpm for 3 min at 4° C. to pellet the cells. […] (plates were kept in the dark). […] The plates were read using Canto II flow cytometer (BD Bioscience). Dead cells were excluded and the fluorescence in the FITC channel (488 nm/530/30) was measured. The data was fit using log (agonist) vs response in GraphPad Prism Software.

[6] = target: T3, mouse LAG-3 expressed on cells; test: flow cytometry on HEK cells expressing mouse LAG-3; remark: listed apart in the source
Description: HEK cells expressing mLAG-3 grown in DMEM (Life Technologies, 61965-026) containing 10% FBS (Life Technologies, 10270-1-6), 100 μg/ml Hygromycin B (Melford Laboratories Ltd, Z2475), 15 μg/ml Blasticidin (Melford Laboratories Ltd, B1105) and 1 μg/ml Doxycyclin (Sigma, D9891) were detached from tissue culture flasks using cell dissociation buffer (Life Technologies, 13151-014). Cells were collected by centrifuged at 1500 rpm for 3 min at 4° C. to pellet the cells and then resuspended in 1×DPBS then seeded in V-bottom 96-well plates (Costar, 3897) at 1.2×10⁵ cells/well in 30 μl. A 1:1 volume of a dilution series of the mAb² (or control mAb) was added and incubated with the cells for 1 h at 4° C. The plates were washed and secondary antibody (Anti-human Fc-488, Jackson ImmunoResearch, 109-546-098) was diluted 1:1000 in PBS and 60 μl was added to the cells for 30 min at 4° C. (plates were kept in the dark). The plates were then washed and the cells resuspended in 60 μl PBS containing 1 μg/ml DAPI (Biotium, 40043). The plates were read using Canto II flow cytometer (BD Bioscience). Dead cells were excluded and the fluorescence in the FITC channel (488 nm/530/30) was measured. The data was fitted using log (agonist) vs response in GraphPad Prism Software.

[7] = target: T5, mouse LAG-3 Fc (R&D Systems, 3328-L3-050) (mouse, UniProt Q61790 24-442); test: SPR, Biacore 3000; mLAG-3 Fc immobilised, Fcab injected
T5 construct: Bought protein; also called mLAG-3 Fc; murine LAG-3Fc; not shown: Fc tag of the bought fusion protein
T5 sequence: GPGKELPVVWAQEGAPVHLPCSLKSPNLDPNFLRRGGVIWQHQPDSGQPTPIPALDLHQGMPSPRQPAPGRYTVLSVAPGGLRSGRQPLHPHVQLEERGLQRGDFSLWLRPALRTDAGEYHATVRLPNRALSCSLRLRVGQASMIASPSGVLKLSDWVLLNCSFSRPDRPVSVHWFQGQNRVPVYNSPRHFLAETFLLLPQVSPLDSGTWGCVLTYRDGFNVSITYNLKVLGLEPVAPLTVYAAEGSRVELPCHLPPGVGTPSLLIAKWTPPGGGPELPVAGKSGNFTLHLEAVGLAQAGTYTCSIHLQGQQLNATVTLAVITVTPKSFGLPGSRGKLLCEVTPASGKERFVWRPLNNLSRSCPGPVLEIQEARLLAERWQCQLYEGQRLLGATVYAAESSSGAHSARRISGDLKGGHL
Description: A Biacore 3000 (GE Healthcare) was used to measure the affinity of the surrogate Fcabs specific for mouse LAG-3 to mouse LAG-3. […] Fcabs were diluted in HBS-P buffer (GE Healthcare, BR-1003-68) and injected at various concentrations (fourfold dilutions from 100 nM) for 3 min at 20 μl/min and then allowed to dissociate in buffer for 12 min. The chip was regenerated by injection of 10 mM glycine pH 2.5 for 30 s at 30 μl/min. Data was double reference subtracted and analyzed using BIAevaluation 3.2 software to calculate kinetic constants.

[8] = target: T5, mouse LAG-3 Fc (R&D Systems, …); test: flow cytometry; inhibition of mouse LAG-3 Fc binding to MHC class II on A375 cells
Description: (§2) The plates were centrifuged at 1500 rpm for 3 min at 4° C. to pellet the cells. […] LAG-3/Fcab mix was added to the A375 cells and incubated for 1 h at 4° C. Cells were washed. Secondary antibody (Alexa Fluor 488 conjugated goat anti-human Fc F(ab′)₂, Jackson Immunoresearch, 109-546-098 or Goat anti-mouse IgG (H+L) 488 conjugate, Life Technologies, A-1101) was diluted 1:1000 in PBS and 100 μl was added to the cells for 30 min at 4° C. (plates were kept in the dark). Cells were washed once in PBS and resuspended in 100 μl PBS+1 μg/ml DAPI (Biotium, 40043). The plates were read on a BD FACSCanto II cytometer (BD Biosciences) and the data analysed using FlowJo software.

[9] = target: T2, recombinant Fc-tagged human LAG-3 (R&D …); test: flow cytometry; inhibition of human LAG-3 Fc binding to MHC class II on A375 cells
Description: as §2

T1 sequence (Q9NZQ7 19-239 limits assumed): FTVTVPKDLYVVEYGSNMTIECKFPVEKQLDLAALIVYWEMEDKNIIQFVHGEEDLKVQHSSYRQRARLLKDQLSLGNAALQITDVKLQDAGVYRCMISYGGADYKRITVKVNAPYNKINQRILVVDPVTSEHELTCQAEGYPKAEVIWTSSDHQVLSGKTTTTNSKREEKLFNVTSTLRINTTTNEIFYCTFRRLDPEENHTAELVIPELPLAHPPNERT

B2: anti-mouse LAG-3/PD-L1 mAb2 FS18-7-108-29/S1 with LALA mutation (bispecific antibody)
heavy: not shown
light: DIQMTQSPSSLSASVGDRVTITCRASQDVSTAVAWYQQKPGKAPKLLIYSASFLYSGVPSRFSGSGSGTDFTLTISSLQPEDFATYYCQQYLFTPPTFGQGTKVEIKRTVAAPSVFIFPPSDEQLKSGTASVVCLLNNFYPREAKVQWKVDNALQSGNSQESVTEQDSKDSTYSLSSTLTLSKADYEKHKVYACEVTHQGLSSPVTKSFNRGEC
notes: also called FS18-29/S1
EC50 [3]: 2.27 nM
EC50 [4]: 11.9 nM

B4: anti-mouse LAG-3 Fcab FS18-7-108-29 (designed binder)
chain: TCPPCPAPELLGGPSVFLFPPKPKDTLMISRTPEVTCVVVDVSHEDPEVKFNWYVDGVEVHNAKTKPREEQYNSTYRVVSVLTVLHQDWLNGKEYKCKVSNKALPAPIEKTISKAKGQPREPQVYTLPPSWDEPWGEDVSLTCLVKGFYPSDIVVEWESNGQPENNYKTTPPVLDSDGSFFLYSKLTVPFERWMWPDEFSCSVMHEALHNHYTQKSLSLSPG
notes: Fcab (truncated hinge, CH2, CH3)
EC50 [5]: 4.5 nM
EC50 [6]: 2.6 nM
Kd [7]: 1.5 nM
IC50 [8]: 0.6 nM

B5: anti-human LAG-3 Fcab FS18-7-33 (designed binder)
chain: B4 chain with V154A, N165D, F190Y, E191D, M194V
IC50 [9]: 2.6 nM

Other lines, results leading:

Kd [1]: 1.2 nM
koff [1]: 0.00046 s⁻¹
kon [1]: 380000 M⁻¹ s⁻¹
binding result [2]: no binding
B1: anti-human PD-L1 mAb 84G09 with LALA mutation (antibody, human IgG1, kappa, L234A L235A)
heavy: not shown
light: DIQMTQSPSSLSASVGDRVTITCRASQSISSYLNWYQQKPGKAPKPLIYVASSLQSGVPSSFSGSGSGTDFTLTISSLQPEDFATYYCQQSYSNPITFGQGTRLEIKRTVAAPSVFIFPPSDEQLKSGTASVVCLLNNFYPREAKVQWKVDNALQSGNSQESVTEQDSKDSTYSLSSTLTLSKADYEKHKVYACEVTHQGLSSPVTKSFNRGEC
notes: Human IgG1 with LALA; also called 84G09LALA; 84G09 LALA

EC50 [3]: 3.84 nM
EC50 [4]: 12.3 nM
B3: anti-mouse LAG-3/PD-L1 mAb2 FS18-7-108-35/S1 with LALA mutation (bispecific antibody)
heavy: not shown
light: B2 light
notes: also called FS18-35/S1

EC50 [5]: 4.5 nM
Kd [7]: 2.1 nM
IC50 [8]: 0.7 nM
B6: anti-mouse LAG-3 Fcab FS18-7-108-35 (designed binder)
chain: B4 chain with V154S
notes: as for B4

IC50 [9]: 2.4 nM
B7: anti-human LAG-3 Fcab FS18-7-78 (designed binder)
chain: B4 chain with V154A, Q162Y, P163K, N165E, F190Y, E191D, M194V
